Consider three molecules from patent US20200123264A1 (Regeneron, published 2020).

Assay [1] addresses T1, recombinant mouse LEPR extracellular domain expressed with a C-terminal myc-myc-hexahistidine tag (mouse, UniProt P48356 22-839).
T1 construct: Monomeric construct; also called mLEPR.MMH; mLEPR-MMH
The assay can be described thus: SPR, mAb captured, 25 C. Here is the method: (§1) Equilibrium dissociation constants (KD values) for antigen binding to purified anti-LEPR monoclonal antibodies of the invention were determined using a real-time surface plasmon resonance biosensor using a Biacore 4000 instrument. All binding studies were performed in running buffer containing 10 mM HEPES, 150 mM NaCl, 3 mM EDTA, and 0.05% v/v Surfactant Tween-20, pH 7.4 (HBS-ET running buffer) at 25° C. and 37° C. The Biacore sensor surface was first derivatized by amine coupling with a monoclonal mouse anti-human Fc antibody (GE, # BR-1008-39) to the capture anti-LEPR monoclonal antibodies. The LEPR reagents tested for binding to the anti-LEPR monoclonal antibodies included recombinant human LEPR extracellular domain expressed with a C-terminal myc-myc-hexahistidine tag (hLEPR.MMH; SEQ ID NO:90), recombinant cynomolgus monkey LEPR extracellular domain expressed with a C-terminal myc-myc-hexahistidine tag (mfLEPR.MMH; SEQ ID NO:93), recombinant mouse LEPR extracellular domain expressed with a C-terminal myc-myc-hexahistidine tag (mLEPR.MMH; SEQ ID NO:94), recombinant rat LEPR extracellular domain expressed with a C-terminal myc-myc-hexahistidine tag (rLEPR.MMH; SEQ ID NO:95), and recombinant human LEPR extracellular domain expressed with a C-terminal mouse IgG2a Fc tag (hLEPR.mFc; SEQ ID NO:91). LEPR constructs that include MMH tags are monomeric LEPR constructs, and LEPR constructs including an mFc tag are dimeric LEPR constructs. […] The dissociation of monoclonal antibody bound LEPR reagent was monitored for 10 minutes in HBS-ET running buffer. Kinetic association (10 and dissociation (10 rate constants were determined by fitting the real-time binding sensorgrams to a 1:1 binding model with mass transport limitation using Scrubber 2.0c curve-fitting software. Binding dissociation equilibrium constants (KD) and dissociative half-lives (t½) were calculated from the kinetic rate constants as: […]

For assay [2], the target named is T2, recombinant human LEPR extracellular domain expressed with a C-terminal mouse IgG2a Fc tag (human).
T2 construct: Dimeric construct; also called hLEPR.mFc; hLEPR-mFc
T2 chain: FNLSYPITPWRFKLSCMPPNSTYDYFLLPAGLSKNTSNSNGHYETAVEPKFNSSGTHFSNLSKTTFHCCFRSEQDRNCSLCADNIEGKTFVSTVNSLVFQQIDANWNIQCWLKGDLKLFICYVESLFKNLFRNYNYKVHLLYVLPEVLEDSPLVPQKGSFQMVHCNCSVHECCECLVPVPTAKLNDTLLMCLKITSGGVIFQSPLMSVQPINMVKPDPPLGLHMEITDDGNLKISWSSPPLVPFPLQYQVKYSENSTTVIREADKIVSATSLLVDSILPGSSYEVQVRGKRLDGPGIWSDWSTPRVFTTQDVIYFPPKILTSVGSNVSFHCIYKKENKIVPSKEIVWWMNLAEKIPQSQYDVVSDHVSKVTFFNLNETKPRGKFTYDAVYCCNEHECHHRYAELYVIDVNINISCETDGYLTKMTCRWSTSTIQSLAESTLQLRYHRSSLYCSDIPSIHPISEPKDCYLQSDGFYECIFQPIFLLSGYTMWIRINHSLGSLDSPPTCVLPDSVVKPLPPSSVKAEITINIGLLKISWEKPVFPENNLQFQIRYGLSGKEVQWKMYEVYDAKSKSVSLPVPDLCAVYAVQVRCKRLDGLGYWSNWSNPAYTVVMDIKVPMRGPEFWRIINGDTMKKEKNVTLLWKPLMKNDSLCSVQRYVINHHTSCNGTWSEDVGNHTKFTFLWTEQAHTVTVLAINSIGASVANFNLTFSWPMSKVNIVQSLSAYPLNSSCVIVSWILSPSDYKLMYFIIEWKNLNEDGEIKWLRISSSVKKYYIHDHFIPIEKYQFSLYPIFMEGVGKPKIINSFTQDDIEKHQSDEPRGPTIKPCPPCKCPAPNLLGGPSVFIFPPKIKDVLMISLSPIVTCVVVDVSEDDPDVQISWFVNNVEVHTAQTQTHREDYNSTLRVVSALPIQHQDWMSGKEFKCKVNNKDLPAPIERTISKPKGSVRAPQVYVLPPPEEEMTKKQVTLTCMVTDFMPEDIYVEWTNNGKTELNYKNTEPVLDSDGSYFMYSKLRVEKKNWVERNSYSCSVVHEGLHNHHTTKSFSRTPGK
The assay can be described thus: SPR, mAb captured, 25 C. Here is the method: as §1

The target of assay [3] is T3, recombinant human LEPR extracellular domain expressed with a C-terminal myc-myc-hexahistidine tag (human, UniProt P48357 22-839).
T3 construct: Monomeric construct; also called hLEPR.MMH; hLEPR-MMH
In words: SPR, mAb captured, 25 C. Here is the method: as §1

The target in assay [4] is T4, recombinant cynomolgus monkey LEPR extracellular domain expressed with a C-terminal myc-myc-hexahistidine tag (cynomolgus monkey, UniProt Q9MYL0 22-837 (rhesus entry)).
T4 construct: Monomeric construct; also called mfLEPR.MMH; mfLEPR-MMH
In words: SPR, mAb captured, 25 C. Here is the method:
as §1

Assay [5] deals with T5, recombinant rat LEPR extracellular domain expressed with a C-terminal myc-myc-hexahistidine tag (rat, UniProt Q62959 22-839).
T5 construct: Monomeric construct; also called rLEPR.MMH; rLEPR-MMH
T5 sequence (Q62959 other isoform, or with tags, fused parts or gaps): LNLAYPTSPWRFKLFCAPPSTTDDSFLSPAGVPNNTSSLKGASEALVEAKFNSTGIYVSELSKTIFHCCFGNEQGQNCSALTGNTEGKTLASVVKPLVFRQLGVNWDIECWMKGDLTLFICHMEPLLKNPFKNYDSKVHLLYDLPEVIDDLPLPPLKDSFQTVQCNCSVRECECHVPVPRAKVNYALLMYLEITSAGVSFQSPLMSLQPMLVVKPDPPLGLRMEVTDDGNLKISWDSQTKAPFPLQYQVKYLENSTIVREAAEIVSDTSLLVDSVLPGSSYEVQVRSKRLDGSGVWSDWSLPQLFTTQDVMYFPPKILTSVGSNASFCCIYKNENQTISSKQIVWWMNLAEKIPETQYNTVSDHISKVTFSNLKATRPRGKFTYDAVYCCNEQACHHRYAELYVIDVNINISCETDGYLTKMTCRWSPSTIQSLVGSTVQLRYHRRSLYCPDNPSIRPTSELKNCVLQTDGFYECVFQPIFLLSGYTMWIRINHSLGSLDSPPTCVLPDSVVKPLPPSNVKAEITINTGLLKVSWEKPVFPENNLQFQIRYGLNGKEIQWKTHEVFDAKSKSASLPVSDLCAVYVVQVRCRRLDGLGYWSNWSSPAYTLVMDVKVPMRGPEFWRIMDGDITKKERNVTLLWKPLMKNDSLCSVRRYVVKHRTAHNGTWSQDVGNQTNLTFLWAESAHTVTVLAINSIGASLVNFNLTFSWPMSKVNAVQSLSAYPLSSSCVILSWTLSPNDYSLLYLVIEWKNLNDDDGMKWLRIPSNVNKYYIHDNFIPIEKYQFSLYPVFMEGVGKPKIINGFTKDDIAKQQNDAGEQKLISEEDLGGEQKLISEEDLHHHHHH
The assay can be described thus: SPR, mAb captured, 25 C. Here is the method:
as §1

For assay [6], the target named is T6, extracellular domain portion of LEPR protein expressed with a C-terminal human Fc tag (human).
T6 construct: Dimeric construct; also called hLEPR.hFc; hLEPR-hFc
The assay can be described thus: competition ELISA, 500 nM Ab, 10 nM hLEPR-hFc binding to coated hLeptin. Here is the method:
These antibody-protein or protein-protein complexes were then incubated for 1.5 hour at room temperature (RT). […] Samples were developed with a TMB solution (BD Biosciences, #555214; substrate A and B mixed at 1:1 ratio as per manufacturer's instructions) to produce a colorimetric reaction and then neutralized with 1M sulfuric acid before measuring absorbance at 450 nm on a Victor X5 plate reader. Data analysis was performed using a sigmoidal dose-response model within Prism™ software (Graph Pad).

T1 sequence (P48356 other isoform, or with tags, fused parts or gaps): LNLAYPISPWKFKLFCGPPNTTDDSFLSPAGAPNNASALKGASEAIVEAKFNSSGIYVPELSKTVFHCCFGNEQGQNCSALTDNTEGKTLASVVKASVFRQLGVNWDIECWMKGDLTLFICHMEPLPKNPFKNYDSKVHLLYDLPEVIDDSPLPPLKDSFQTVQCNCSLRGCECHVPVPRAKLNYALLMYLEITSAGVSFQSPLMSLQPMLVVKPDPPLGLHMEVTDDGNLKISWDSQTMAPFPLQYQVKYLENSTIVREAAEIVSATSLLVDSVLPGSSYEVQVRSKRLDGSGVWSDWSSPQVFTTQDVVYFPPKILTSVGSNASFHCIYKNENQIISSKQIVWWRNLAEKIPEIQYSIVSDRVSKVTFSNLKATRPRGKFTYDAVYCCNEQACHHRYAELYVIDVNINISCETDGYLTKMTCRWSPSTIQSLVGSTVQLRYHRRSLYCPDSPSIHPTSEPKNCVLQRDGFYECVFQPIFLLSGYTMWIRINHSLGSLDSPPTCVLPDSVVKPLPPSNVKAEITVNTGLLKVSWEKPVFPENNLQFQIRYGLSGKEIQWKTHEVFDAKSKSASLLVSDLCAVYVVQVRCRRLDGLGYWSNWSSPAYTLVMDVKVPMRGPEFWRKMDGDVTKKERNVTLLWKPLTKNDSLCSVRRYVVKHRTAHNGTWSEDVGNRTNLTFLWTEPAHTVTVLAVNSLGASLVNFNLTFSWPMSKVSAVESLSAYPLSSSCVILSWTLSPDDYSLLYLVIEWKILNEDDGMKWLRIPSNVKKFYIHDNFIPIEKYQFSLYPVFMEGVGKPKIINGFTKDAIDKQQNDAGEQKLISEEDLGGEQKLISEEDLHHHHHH

B1: H4H18462P2 (antibody, human IgG4, V domains shown)
VH: EVQLVESGGDLVQPGRSLRLSCAASGFTFSSFAMSWVRQAPGRGLEWVSSLSDSGDNTYYADSVKGRFTISRDNSKNTLYLQMNNLRAEDTAVYYCAKDLFSGWLFHGFDVWGQGTMVTVSS
VL: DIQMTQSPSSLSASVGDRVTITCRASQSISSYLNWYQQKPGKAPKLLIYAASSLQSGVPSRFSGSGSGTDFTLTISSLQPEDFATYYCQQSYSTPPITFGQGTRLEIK
notes: H4H prefix: human IgG4 Fc
As for B1, in assay [1], the “100 nM mLEPR-MMH Bound (RU)” value was determined as 2 RU and the binding result is “no binding (tested: 100 nM)”. In assay [2], the “100 nM hLEPR-mFc Bound (RU)” value stood at 68 RU, the Kd turned out to be 3.26 nM, the koff came out at 0.000296 s⁻¹ and the on-rate (kon) was determined as 90800 M⁻¹ s⁻¹. Moreover, the t½ in assay [2] was determined as 39 min. Moreover, in assay [3], the “100 nM hLEPR-MMH Bound (RU)” value was 34 RU, the Kd stood at 113 nM, the dissociation rate constant (koff) amounted to 0.00765 s⁻¹ and the association rate constant (kon) was found to be 67900 M⁻¹ s⁻¹. Also, the t½ in assay [3] is 1.5 min. Also, in assay [4], the “100 nM mfLEPR-MMH Bound (RU)” value was determined as 42 RU, the Kd stood at 179 nM, the koff was determined as 0.0133 s⁻¹ and the association rate constant (kon) turned out to be 74200 M⁻¹ s⁻¹. Moreover, the t½ in assay [4] was determined as 0.9 min. In assay [5], the “100 nM rLEPR-MMH Bound (RU)” value was found to be 5 RU, the Kd is 336 nM, the dissociation rate constant (koff) amounted to 0.0108 s⁻¹ and the on-rate constant (kon) turned out to be 32100 M⁻¹ s⁻¹. Moreover, the t½ in assay [5] was found to be 1.1 min. For the same molecule, in assay [6], the “% blockade” value is 14%.

B2: H4H18439P2 (antibody, human IgG4, V domains shown)
VH: QLQLQESGPGLVKPSETLSLTCIVSGGDITSSSYYWNWIRQPPGKGLEWIGNIYYSGSTNYNPSLKSRVTISIDTSKSQFSLKLRSVTAADTAVYYCARLLRYFDWSKGYLDYWGQGTLVTVSS
VL: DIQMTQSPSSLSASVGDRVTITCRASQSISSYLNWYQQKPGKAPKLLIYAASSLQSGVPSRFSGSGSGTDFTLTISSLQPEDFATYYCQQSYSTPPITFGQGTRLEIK
notes: H4H prefix: human IgG4 Fc
Turning to B2, in assay [1], the “100 nM mLEPR-MMH Bound (RU)” value is -2 RU. In assay [2], the “100 nM hLEPR-mFc Bound (RU)” value was 53 RU, the Kd was 3.69 nM, the koff stood at 0.00018 s⁻¹ and the kon came out at 48700 M⁻¹ s⁻¹. Moreover, the t½ in assay [2] came to 64 min. Besides, in assay [3], the “100 nM hLEPR-MMH Bound (RU)” value turned out to be 21 RU, the Kd turned out to be 106 nM, the koff came out at 0.00113 s⁻¹ and the kon worked out at 10700 M⁻¹ s⁻¹. In assay [3], the t½ is 10 min. Besides, in assay [4], the “100 nM mfLEPR-MMH Bound (RU)” value was 22 RU, the dissociation constant (Kd) is 96.3 nM, the koff was 0.00152 s⁻¹ and the on-rate constant (kon) came to 15700 M⁻¹ s⁻¹. In addition, in assay [4], the t½ was 8 min. Moreover, the “100 nM rLEPR-MMH Bound (RU)” value in assay [5] is -1 RU. Also, the “% blockade” value in assay [6] is -1%.

B3: H4H18466P2 (antibody, human IgG4, V domains shown)
VH: EVQLVESGGGLVQPGGSLRLSCTASGFTFSSYGLHWVRQAPGKGLEYVSSINHNGGSKYYADSVKGRFTISRDNSKNTLFLQMGSLKTEDMAVYYCARDLFLEWLFHGFDIWGQGTMVTVSS
VL: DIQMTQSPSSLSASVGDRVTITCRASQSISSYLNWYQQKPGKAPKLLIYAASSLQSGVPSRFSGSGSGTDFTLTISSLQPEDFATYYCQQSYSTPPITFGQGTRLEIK
notes: H4H prefix: human IgG4 Fc
Turning to B3, in assay [1], the “100 nM mLEPR-MMH Bound (RU)” value is 1 RU and the binding result is on record as “no binding (tested: 100 nM)”. Besides, in assay [2], the “100 nM hLEPR-mFc Bound (RU)” value was 37 RU, the Kd stood at 11.9 nM, the koff amounted to 0.000472 s⁻¹ and the kon was determined as 39700 M⁻¹ s⁻¹. Moreover, in assay [2], the t½ was determined as 24 min. In assay [3], the “100 nM hLEPR-MMH Bound (RU)” value was found to be 24 RU, the dissociation constant Kd stood at 194 nM, the koff was 0.00511 s⁻¹ and the kon is 26400 M⁻¹ s⁻¹. In addition, the t½ in assay [3] turned out to be 2.3 min. Further, in assay [4], the “100 nM mfLEPR-MMH Bound (RU)” value is 30 RU, the equilibrium dissociation constant (Kd) stood at 148 nM, the koff turned out to be 0.00669 s⁻¹ and the on-rate constant (kon) came out at 45000 M⁻¹ s⁻¹. The t½ in assay [4] came out at 1.7 min. For the same molecule, in assay [5], the “100 nM rLEPR-MMH Bound (RU)” value was determined as 5 RU, the equilibrium dissociation constant (Kd) stood at 943 nM, the dissociation rate constant (koff) turned out to be 0.0198 s⁻¹ and the kon is 21000 M⁻¹ s⁻¹. Also, the t½ in assay [5] came to 0.6 min. For the same molecule, the “% blockade” value in assay [6] was 2%.
